Measurements reported in patent US20240228612A1 (SICHUAN KELUN BIOTECH BIOPHARMACEUTICAL, published 2024).
Substitutions are numbered along the chain they refer to. Each block holds one binder with its values, some of them ahead of it.

Tests used:
human Nectin-1 antigen = target: T1, human Nectin-1 antigen (human, UniProt Q15223 31-334, limits assumed); experiment: ELISA, coated human Nectin-1, anti-human-HRP
T1 sequence (looked up): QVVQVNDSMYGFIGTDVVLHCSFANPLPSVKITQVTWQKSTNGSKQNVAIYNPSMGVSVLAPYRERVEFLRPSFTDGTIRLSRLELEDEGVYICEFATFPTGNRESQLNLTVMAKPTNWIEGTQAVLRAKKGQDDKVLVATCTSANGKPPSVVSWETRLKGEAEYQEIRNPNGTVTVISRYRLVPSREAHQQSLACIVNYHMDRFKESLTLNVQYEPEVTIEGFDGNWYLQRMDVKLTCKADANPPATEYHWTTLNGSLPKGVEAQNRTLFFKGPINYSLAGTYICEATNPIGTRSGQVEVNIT
Procedure: (§1) The Nectin family includes members of Nectin-1, Nectin-2, Nectin-3 and Nectin-4, and the members share a sequence identity of about 25%, but have similar structure and function. […] The specific steps were as follows: human Nectin-1, Nectin-2, Nectin-3 and Nectin-4 antigens were diluted to 1 μg/mL with CBS coating solution, coated on an ELISA plate at 100 μL per well, and standed overnight at 4° C.; the liquid in the well was discarded on the next day, and washing was performed once with 300 μL of PBS; 100 μL of PBS (containing 2% BSA) was added, and blocking was performed at 37° C. for 2 hours; 31HZ, 56HZ, 74HZ and Enfortumab antibodies were diluted with PBS (containing 2% BSA), 100 μL was taken and added to the corresponding well, incubated at 37° C. for 2 hours; washing was performed 3 times with 300 μL of PBST; HRP-labeled goat anti-human secondary antibody was diluted at a ratio of 1:10000 with PBS (containing 2% BSA), 100 μL was taken and added to the corresponding well, incubation was performed at 37° C. for 1 hour; washing was performed 5 times with 300 μL of PBST; 100 μL of TMB color development solution was added to the corresponding well, and color development was performed at room temperature for 5-20 minutes; 50 μL of 2N H₂SO₄ was added for stopping, a microplate reader was used for collecting readings at OD450 nm, and the data were imported into Graphpad Prism for curve fitting.

human Nectin-2 antigen = target: T2, human Nectin-2 antigen (human, UniProt Q92692 32-360, limits assumed); experiment: ELISA, coated human Nectin-2, anti-human-HRP
T2 sequence (looked up): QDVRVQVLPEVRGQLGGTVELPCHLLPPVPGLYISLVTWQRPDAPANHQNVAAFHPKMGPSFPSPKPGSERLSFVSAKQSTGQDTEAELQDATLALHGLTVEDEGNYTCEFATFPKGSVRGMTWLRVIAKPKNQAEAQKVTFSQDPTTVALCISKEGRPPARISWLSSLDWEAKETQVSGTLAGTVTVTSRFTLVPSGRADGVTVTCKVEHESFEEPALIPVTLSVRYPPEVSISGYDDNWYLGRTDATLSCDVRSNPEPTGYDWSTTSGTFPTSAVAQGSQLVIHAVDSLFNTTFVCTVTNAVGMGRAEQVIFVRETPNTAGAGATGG
Procedure: as §1

[1] = target: T3, human Nectin-4 on cell membrane surface (human, UniProt Q96NY8 32-510); experiment: flow cytometry on T47D cells
T3 construct: whole, on cells; also called A549-Nectin-4; T24-Nectin-4
T3 sequence (looked up): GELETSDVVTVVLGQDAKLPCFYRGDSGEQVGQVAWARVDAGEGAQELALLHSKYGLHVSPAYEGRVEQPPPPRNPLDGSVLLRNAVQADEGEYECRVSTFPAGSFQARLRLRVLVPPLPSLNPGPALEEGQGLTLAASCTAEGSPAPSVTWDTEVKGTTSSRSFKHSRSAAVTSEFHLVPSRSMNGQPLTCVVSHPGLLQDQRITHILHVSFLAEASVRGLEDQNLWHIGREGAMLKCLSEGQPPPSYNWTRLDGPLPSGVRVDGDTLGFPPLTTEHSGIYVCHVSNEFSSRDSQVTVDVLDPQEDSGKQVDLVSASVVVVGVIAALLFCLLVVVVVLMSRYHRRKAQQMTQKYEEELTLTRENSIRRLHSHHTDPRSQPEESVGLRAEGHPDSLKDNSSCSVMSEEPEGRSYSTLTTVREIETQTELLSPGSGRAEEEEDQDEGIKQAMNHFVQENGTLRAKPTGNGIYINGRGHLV
Procedure: The specific steps were as follows: T47D cells were digested, resuspended by centrifugation, and washed twice with PBS; the cells were resuspended in PBS (containing 1% BSA), and spread into a 96-well tip-bottom plate at 3×10⁵ cells/well, with a volume of 50 μl per well; 50 μL of the antibody to be tested was added to each well, starting at a final concentration of […], 4-fold gradient dilution, a total of 10 concentration points; Human IgG was used as a negative control; after being mixed well, the resulting mixture was reacted in the dark at 4° C. for 1 hour; washing was performed 3 times with PBS, FITC-labeled anti-human Fc secondary antibody (brand: BioLegend, product number: 409322) was added, incubated at 4° C. for 0.5 hours in the dark; washing was performed 3 times with PBS, and detection was carried out using a flow cytometer (flow cytometer brand: Beckman, model: Cytoflex).

[2] = target: T4, cynomolgus monkey Nectin-4 protein (cynomolgus monkey); experiment: BLI (Octet Fortebio), antibody on ProA sensor, Nectin-4 as analyte, 1:1 global fit
T4 construct: also called cynomolgus monkey Nectin-4 antigen
Procedure: (§2) The dynamic affinity of anti-human Nectin-4 humanized monoclonal antibodies was detected using Octet Fortebio®. The main steps comprised: firstly, the anti-human Nectin-4 humanized monoclonal antibody (concentration of 5 μg/mL) was immobilized on ProA sensor, then subjected to binding reaction with human or cynomolgus monkey Nectin-4 (gradiently diluted to 400 nM, 200 nM, 100 nM, 50 nM, 25 nM, 12.5 nM, 6.25 nM, 0 nM), and the anchored product in the solid phase obtained through fully reaction was subjected to dissociation reaction in PBST buffer. After the completion of the experiment, the results were analyzed by using Data Analysis 11.0 software at 1:1 mode to perform global fitting, thereby obtaining the affinity constant of antibody to antigen.

human Nectin-4 protein = target: T5, human Nectin-4 protein (human, UniProt Q96NY8 32-349); experiment: as above
T5 construct: Purified protein used for coating in ELISA and as analyte in Octet; also called human Nectin-4 antigen
T5 sequence (looked up): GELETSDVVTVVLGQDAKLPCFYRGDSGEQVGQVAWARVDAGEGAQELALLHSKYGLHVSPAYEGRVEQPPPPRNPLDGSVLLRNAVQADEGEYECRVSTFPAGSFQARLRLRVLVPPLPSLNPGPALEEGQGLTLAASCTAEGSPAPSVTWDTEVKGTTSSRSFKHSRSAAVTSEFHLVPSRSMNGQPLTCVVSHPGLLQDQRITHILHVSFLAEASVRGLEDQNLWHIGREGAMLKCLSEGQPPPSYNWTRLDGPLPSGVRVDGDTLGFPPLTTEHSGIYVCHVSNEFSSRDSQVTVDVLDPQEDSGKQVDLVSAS
Procedure: as §2

- binding result (human Nectin-1 antigen): no binding (tested: 10000 ng/mL)
- binding result (human Nectin-2 antigen): no binding (tested: 10000 ng/mL)
- EC50 [1]: 0.0223 µg/mL
- Kd [2]: 9.54 nM
- Kd (human Nectin-4 protein): 12.1 nM
B1: anti-human Nectin-4 humanized monoclonal antibody 74HZ (antibody, human IgG1, kappa, V domains shown)
VH: QVQLVQSGAEVKKPGSSVKVSCKASGYTFINYWMNWVRQAPGQGLEWIGMIHPSDSATRLNQSFQGRVTLTVDKSTSTAYMELSSLRSEDTAVYYCARWGNFYTVNAWYYFDYWGQGTLVTVSS
VL: DIVITQSPDSLAVSLGERATINCKSSQTLLNSNTQKNYLAWYQQKPGQSPKLLFYFASTRESGVPDRFSGSGSGTDFTLTISSLQAEDVAVYFCQQHYSTPLTFGQGTKLEIKR
notes: Human IgG1 heavy chain constant region, human kappa light chain constant region; expressed in CHO-E cells

- binding result (human Nectin-1 antigen): no binding (tested: 10000 ng/mL)
- binding result (human Nectin-2 antigen): no binding (tested: 10000 ng/mL)
- EC50 [1]: 0.0123 µg/mL
- Kd [2]: 14.5 nM
- Kd (human Nectin-4 protein): 22.5 nM
B2: anti-human Nectin-4 humanized monoclonal antibody 31HZ (antibody, human IgG1, kappa, V domains shown)
VH: QVQLVQSGAEVKKPGSSVKVSCKASGYTFTDYWMNWVRLAPGQGLEWIGMIHPSDSETRLNQKFQGRVTLTVDKSTSTAYMELSSLRSEDTAVYYCARWDFRIYYAMDYWGQGTLVTVSS
VL: B1 VL with I2V, T28S, S32T, T34S, F54V, Q106G, L110V
notes: as for B1

- binding result (human Nectin-1 antigen): no binding
- binding result (human Nectin-2 antigen): no binding
- Kd [2]: 18.4 nM
- Kd (human Nectin-4 protein): 19.6 nM
B3: anti-human Nectin-4 humanized monoclonal antibody 56HZ (antibody, human IgG1, kappa, V domains shown)
VH: QVQLQESGPGLVKPSQTLSLTCTVSGYFNSITSDYDWHWIRHHPGKGLEWMGYISFSGRTYYNPSLKSRVTISHDTSKNQFSLKLSSVTAADTAVYYCARGNYDGFDYWGQGTLVTVSS
VL: DIVLTQSPATLSLSPGERATLSCRASQNIGTSIHWYQHKPGQSPRLLIKFASESISGIPARFSGSGSGTDFTLTISSLEPEDFAVYYCQQSKSWPTYTFGGGTKVEIKR
notes: as for B1
